In the supplement of paper PMC12042874:
± gives the uncertainty stated by the source.

Assay: amyloid nucleation score (Sup35N fusion, yeast selection) (log enrichment); library NNK3; higher = more nucleation; inactive = no reads after selection
In short: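 On medium lacking adenine and uracil, psi-negative yeast expressing peptides of 20 random codons fused to Sup35N were grown 7 days at 30°C after a 24-hour induction with 100 μM copper sulfate. Illumina sequencing of input and output plasmid inserts gave the reads, and sequences under 100 input reads were excluded. The nucleation score is the DiMSum log enrichment of output over input reads, centred on the mode score of non-aggregating sequences.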

Amyloid nucleation score, -0.112 ± 0.37:
RYTVSGTLSAYF

Amyloid nucleation score, -0.013 ± 0.51:
RSEVRR

Amyloid nucleation score, 1.48 ± 0.1:
RRTWGSMYTKVLSISFLGPG

Amyloid nucleation score, -0.307 ± 0.88:
RYSESLMFRFKWDDYYRGRV

Amyloid nucleation score, -0.578 ± 1:
RWNGFVVNTFINTLGRLTKC

Amyloid nucleation score, inactive:
RLSGVIGT
RLSRSRKRYFFGFR
RLSSLPHCVIM
RLSWSQPVLNVSTCEGVN
RLWLRKT
RLYFYDEKCIGCHGSNSLTQ
RMENWLRCL
RMGLTEMWHVIPSITSRQYL
RMGYFSCQVRYSRFLTIPSR
RMNNLSGEQKQLCDLSLAVR
RMSLNFNSQPRSLVMGNKYS
RMSLRAELVKVNLEAIPNWT
RMSLSGRYRHFWSGRCVCRE
RMVRIALTL
RMYPHE
RNFRRVSSRF
RNIQWRFIP
RNKVKQTE
RNMGYVTDNYLYTVLYYDCY
RNSSNGSVHKQVFAVELKVP
RNSSYYLMASVDCVRFH
RPCNVMEKRDSTNIVTRFT
RPFLSMS
RPGVC
RPRTRNRRSSISWAKAL
RPSCMFCPSHAMARLPPVGS
RQERCGSALPCCCKMIDRRA
RQGYVADNSTGESDIGDGLG
RQLTLSRITNLSLK
RRCMFIFSYWPRRVLATVLK
RRDSDIDRALSLGYASRTTK
RRIASEWDLTTVPLLLV
RRKLTAMVNTGEWMSQDDGS
RRLHSIAFVHRCLIIICCMG
RRMAETKHGAPMQRVLK
RRMRFCKTSYEYLCNYAAPK
RRNMWG
RRVQKERSLKC
RRVSHLFLRTCCPSWTYYHL
RRWTTEVKQVHDYCG
RRYGTDRLLMRYSIENFCVL
RSAFGIGFPGGYCVLDHYER
RSALILAWHCRSMSLQDAEG
RSERVRNSKLTVCVIYKYIK
RSEWQMTRNYRVWGCYI
RSFKWNSECILWVSMLFSM
RSLLGGSKAVYTWDWQPAII
RSLTLKLTGGVLALMRS
RSNMHC
RSNNGSSERGGDIEDLSPNK
RSQWLFISKKFDLAIYIAV
RSRET
RSRILMYYYKISLFYRIKVM
RSRYSSLPLPVV
RSSFVWTSRHFVV
RSVFCKKFPDKNMVVFGVHL
RSVFTTSCH
RSVVLLAMMSGYRDISIFRT
RSVVVIYKRCGLYLKS
RSWSETC
RTISGYSPSIVGQRDSRGFL
RTKKY
RTLAVSIRNQWPYIGLARDT
RTPPLRTQLESKSIFKEMAR
RTSYNTFGGFYTNGWTLILR
RTTAK
RVACFQIHGK
RVAFSMESTPWSMFTSRTAE
RVDPTSRMSGIYHWILT
RVFHP
RVMCTYTRYLWFKFISLMMV
RVMMSAACHLILCWNWPKWK
RVNRSLGIVSIECRWVVIRG
RVRNDYLPDRHWFSKHRGTK
RVRRGSHCNTFKKSLRLRCA
RVSGEMFASSL
RVSSGSIVTRQHDLN
RVSWGARVHIWCSLDLVCRF
RVTDLFRRLASNYILSSTTA
RVTDLRYIKMFVCIILCTGL
RVTIVPTKHHLML
RVYMPAAKSINYEPNITRM
RWAELTEQTCS
RWIFLITILGVLNT
RWLVT
RWWTCSQSNSGVIFEQIYQT
RYCNASY
RYFSFELKLMLISELYVMAV
RYFVT
RYGIFMEHEIMYHLNPDGFY
RYKTMRRVTFKHSLNKKWVK
RYSRSKIG
RYTGLMTKLASYYNKISICN
RYYGSFVEPRSFSRN
SAAGKQLKSRFIGRR
SAASYLTHDVN
SACECAPTTSRIRPGSSATR
SADLFVSEYKGIRMTIGNVF
SADNLDKFRLEMPVSLVRLN
SAGIIFCMKSLVFSFLFITL
SAIKYPLSRRCMWAGSSLLG
SAIYLYKYCPSNIITRTLVP
SALLKWYRYTSAWSGNDVAA
SALVLPRSVSVDLIGVWDFK
SANSQYDI
SANYNSNFR
SAPKWGGTYDRVCTISNFTV
SAQPESY
SARISNAVNDSFTGKTMYNK
SARYWESDRLALIRCHLELR
SCGACLKEGRSG
SCGYTLWLYRCEIQRRV
SCKRPVTVWACDQVRYDRFP
SCKVVPCYHVDDMVEL
SCTRIVY
SCWRNLYSFLRKGSYSRCM
SCYIEWMVFGSYPL
SDGVGQLDSDVHSGGGDNRQ
SDIMNDH
SDLSCSELEYSHGTNTDWVR
SDSGLKKV
SDTLYFVCSVTWQRFYKMID
SEAPSSR
SEGDLKYVW
SEHDDGMVSPKTHTVGSYTC
SEHMNGWHHNLTQCEENFRN
SEIKYSYSYMRFLNCTETSN
SEIVSKVITLQGNICFFGMG

Amyloid nucleation score, 0.332 ± 0.23:
RLVVVYLGTNSTSKEDISC

Amyloid nucleation score, 1.6 ± 0.059:
RVFYCNL

Amyloid nucleation score, 1.27 ± 0.17:
RVFGGEIRLSRTCVVM

Amyloid nucleation score, -0.01 ± 0.45:
RNSFVLWMVSSV

Amyloid nucleation score, -0.696 ± 1.1:
RRRFCVKGSPGVRFVEWTLR

Amyloid nucleation score, -0.667 ± 1.8:
RVVYL

Amyloid nucleation score, 1.75 ± 0.11:
RVRQTFCIW

Amyloid nucleation score, 1.02 ± 0.19:
RMYWAV

Amyloid nucleation score, 0.221 ± 0.33:
RLTVYISQRKKHHCLMERSH

Amyloid nucleation score, 2.8 ± 0.082:
RTDYVISNVAMCNSLLC

Amyloid nucleation score, -0.071 ± 0.73:
RTYLDYGVNALLCPLTWGFS

Amyloid nucleation score, -0.185 ± 0.9:
RNPWKFAATRFRLLQNPLVE

Amyloid nucleation score, -0.118 ± 0.58:
RRKWHEYSVVMSRTNHMCIW

Amyloid nucleation score, 0.523 ± 0.24:
SCCGRKMRPGRFEIIDKFCI

Amyloid nucleation score, 2.71 ± 0.067:
RVVNFFVGVNTNEAMFKRSV

Amyloid nucleation score, 0.544 ± 0.17:
RQYRSLRFSVLVYPSHISKG

Amyloid nucleation score, 0.522 ± 0.38:
RVGAVMVEGRFLYHA

Amyloid nucleation score, 0.611 ± 0.14:
RRMLIGFHVFSYYWDNEYTR

Amyloid nucleation score, 0.012 ± 0.28:
RLVRSMAFYNHVIYL

Amyloid nucleation score, 0.149 ± 0.81:
RNGVHS

Amyloid nucleation score, 0.237 ± 0.65:
SCHFYTML

Amyloid nucleation score, -0.133 ± 0.66:
SCASAFKKVLVCSNCSGRFS

Amyloid nucleation score, 1.9 ± 0.098:
RTDFHPLYLILWNQRK

Amyloid nucleation score, 1.01 ± 0.14:
SCDNYVVLTHEFVLSHSKSL

Amyloid nucleation score, 0.675 ± 0.51:
SCFCMKLSLFYGAIN

Amyloid nucleation score, 1.28 ± 0.13:
RSRRFGYSAAISFTIGNLNS

Amyloid nucleation score, 0.14 ± 0.56:
RWCVM

Amyloid nucleation score, 0.014 ± 0.71:
RYNPFRIQELSMLFVLERTL

Amyloid nucleation score, 0.939 ± 0.12:
RVYVAWTTCSADKKNSNIMQ
